# Article PMC6176637 (Proceedings of the National Academy of Sciences of the …, 2018)
# Molecular target: the molecule itself
# Experiment: cryo-EM structure
protein,measurement,value
full-length hemagglutinin (HA) from A/duck/Alberta/35/76(H1N1) virus (natural protein) chain 1: not shown chain 2: not shown,stoichiometry N,3
